First the molecules themselves.
B1: N^ε1-[2-[2-[2-[[(4S)-4-carboxy-4-(19-carboxynonadecanoylamino)butanoyl]amino]ethoxy]ethoxy]acetyl]-[His14,Arg17,Pro21,Pro27]-h-amylin (peptide)
peptide: K([AEEA-γGlu-C20 diacid])CNTATCATQRLAHFLRHSSPNFGAIPSSTNVGSNTY-NH2
modifications: disulfide 2-7; N-terminus assumed
SMILES: CC[C@H](C)[C@H](NC(=O)[C@H](C)NC(=O)CNC(=O)[C@H](Cc1ccccc1)NC(=O)[C@H](CC(N)=O)NC(=O)[C@@H]1CCCN1C(=O)[C@H](CO)NC(=O)[C@H](CO)NC(=O)[C@H](Cc1c[nH]cn1)NC(=O)[C@H](CCCNC(=N)N)NC(=O)[C@H](CC(C)C)NC(=O)[C@H](Cc1ccccc1)NC(=O)[C@H](Cc1c[nH]cn1)NC(=O)[C@H](C)NC(=O)[C@H](CC(C)C)NC(=O)[C@H](CCCNC(=N)N)NC(=O)[C@H](CCC(N)=O)NC(=O)[C@@H](NC(=O)[C@H](C)NC(=O)[C@@H]1CSSC[C@H](NC(=O)[C@@H](N)CCCCNC(=O)COCCOCCNC(=O)CC[C@H](NC(=O)CCCCCCCCCCCCCCCCCCC(=O)O)C(=O)O)C(=O)N[C@@H](CC(N)=O)C(=O)N[C@@H]([C@@H](C)O)C(=O)N[C@@H](C)C(=O)N[C@@H]([C@@H](C)O)C(=O)N1)[C@@H](C)O)C(=O)N1CCC[C@H]1C(=O)N[C@@H](CO)C(=O)N[C@@H](CO)C(=O)N[C@H](C(=O)N[C@@H](CC(N)=O)C(=O)N[C@H](C(=O)NCC(=O)N[C@@H](CO)C(=O)N[C@@H](CC(N)=O)C(=O)N[C@H](C(=O)N[C@@H](Cc1ccc(O)cc1)C(N)=O)[C@@H](C)O)C(C)C)[C@@H](C)O
notes: also called compound 69
B2: N^ε1-[2-[2-[2-[[2-[2-[2-[[(4S)-4-carboxy-4-(19-carboxynonadecanoylamino)butanoyl]amino]ethoxy]ethoxy]acetyl]amino]ethoxy]ethoxy]acetyl]-[Arg17,Pro21,Pro27,Arg34 … (peptide)
peptide: K([AEEA-AEEA-γGlu-C20 diacid])CNTATCATQRLANFLRHSSPNFGAIPSSTNVGRNTY-NH2
modifications: disulfide 2-7; N-terminus assumed
SMILES: CC[C@H](C)[C@H](NC(=O)[C@H](C)NC(=O)CNC(=O)[C@H](Cc1ccccc1)NC(=O)[C@H](CC(N)=O)NC(=O)[C@@H]1CCCN1C(=O)[C@H](CO)NC(=O)[C@H](CO)NC(=O)[C@H](Cc1c[nH]cn1)NC(=O)[C@H](CCCNC(=N)N)NC(=O)[C@H](CC(C)C)NC(=O)[C@H](Cc1ccccc1)NC(=O)[C@H](CC(N)=O)NC(=O)[C@H](C)NC(=O)[C@H](CC(C)C)NC(=O)[C@H](CCCNC(=N)N)NC(=O)[C@H](CCC(N)=O)NC(=O)[C@@H](NC(=O)[C@H](C)NC(=O)[C@@H]1CSSC[C@H](NC(=O)[C@@H](N)CCCCNC(=O)COCCOCCNC(=O)COCCOCCNC(=O)CC[C@H](NC(=O)CCCCCCCCCCCCCCCCCCC(=O)O)C(=O)O)C(=O)N[C@@H](CC(N)=O)C(=O)N[C@@H]([C@@H](C)O)C(=O)N[C@@H](C)C(=O)N[C@@H]([C@@H](C)O)C(=O)N1)[C@@H](C)O)C(=O)N1CCC[C@H]1C(=O)N[C@@H](CO)C(=O)N[C@@H](CO)C(=O)N[C@H](C(=O)N[C@@H](CC(N)=O)C(=O)N[C@H](C(=O)NCC(=O)N[C@@H](CCCNC(=N)N)C(=O)N[C@@H](CC(N)=O)C(=O)N[C@H](C(=O)N[C@@H](Cc1ccc(O)cc1)C(N)=O)[C@@H](C)O)C(C)C)[C@@H](C)O
notes: also called compound 95
B3: N^ε1-[2-[2-[2-(19-carboxynonadecanoylamino)ethoxy]ethoxy]acetyl]-[Arg17,Pro21,Pro27,His34]-h-amylin (peptide)
peptide: K([AEEA-C20 diacid])CNTATCATQRLANFLRHSSPNFGAIPSSTNVGHNTY-NH2
modifications: disulfide 2-7; N-terminus assumed
SMILES: CC[C@H](C)[C@H](NC(=O)[C@H](C)NC(=O)CNC(=O)[C@H](Cc1ccccc1)NC(=O)[C@H](CC(N)=O)NC(=O)[C@@H]1CCCN1C(=O)[C@H](CO)NC(=O)[C@H](CO)NC(=O)[C@H](Cc1c[nH]cn1)NC(=O)[C@H](CCCNC(=N)N)NC(=O)[C@H](CC(C)C)NC(=O)[C@H](Cc1ccccc1)NC(=O)[C@H](CC(N)=O)NC(=O)[C@H](C)NC(=O)[C@H](CC(C)C)NC(=O)[C@H](CCCNC(=N)N)NC(=O)[C@H](CCC(N)=O)NC(=O)[C@@H](NC(=O)[C@H](C)NC(=O)[C@@H]1CSSC[C@H](NC(=O)[C@@H](N)CCCCNC(=O)COCCOCCNC(=O)CCCCCCCCCCCCCCCCCCC(=O)O)C(=O)N[C@@H](CC(N)=O)C(=O)N[C@@H]([C@@H](C)O)C(=O)N[C@@H](C)C(=O)N[C@@H]([C@@H](C)O)C(=O)N1)[C@@H](C)O)C(=O)N1CCC[C@H]1C(=O)N[C@@H](CO)C(=O)N[C@@H](CO)C(=O)N[C@H](C(=O)N[C@@H](CC(N)=O)C(=O)N[C@H](C(=O)NCC(=O)N[C@@H](Cc1c[nH]cn1)C(=O)N[C@@H](CC(N)=O)C(=O)N[C@H](C(=O)N[C@@H](Cc1ccc(O)cc1)C(N)=O)[C@@H](C)O)C(C)C)[C@@H](C)O
notes: also called compound 91
B4: N^ε1-[(4S)-4-carboxy-4-[[(4S)-4-carboxy-4-(19-carboxynonadecanoylamino)butanoyl]amino]butanoyl]-[Asp14,Arg17,Pro21,Pro27,Arg35]-h-amylin (peptide)
peptide: K([γGlu-γGlu-C20 diacid])CNTATCATQRLADFLRHSSPNFGAIPSSTNVGSRTY-NH2
modifications: disulfide 2-7; N-terminus assumed
SMILES: CC[C@H](C)[C@H](NC(=O)[C@H](C)NC(=O)CNC(=O)[C@H](Cc1ccccc1)NC(=O)[C@H](CC(N)=O)NC(=O)[C@@H]1CCCN1C(=O)[C@H](CO)NC(=O)[C@H](CO)NC(=O)[C@H](Cc1c[nH]cn1)NC(=O)[C@H](CCCNC(=N)N)NC(=O)[C@H](CC(C)C)NC(=O)[C@H](Cc1ccccc1)NC(=O)[C@H](CC(=O)O)NC(=O)[C@H](C)NC(=O)[C@H](CC(C)C)NC(=O)[C@H](CCCNC(=N)N)NC(=O)[C@H](CCC(N)=O)NC(=O)[C@@H](NC(=O)[C@H](C)NC(=O)[C@@H]1CSSC[C@H](NC(=O)[C@@H](N)CCCCNC(=O)CC[C@H](NC(=O)CC[C@H](NC(=O)CCCCCCCCCCCCCCCCCCC(=O)O)C(=O)O)C(=O)O)C(=O)N[C@@H](CC(N)=O)C(=O)N[C@@H]([C@@H](C)O)C(=O)N[C@@H](C)C(=O)N[C@@H]([C@@H](C)O)C(=O)N1)[C@@H](C)O)C(=O)N1CCC[C@H]1C(=O)N[C@@H](CO)C(=O)N[C@@H](CO)C(=O)N[C@H](C(=O)N[C@@H](CC(N)=O)C(=O)N[C@H](C(=O)NCC(=O)N[C@@H](CO)C(=O)N[C@@H](CCCNC(=N)N)C(=O)N[C@H](C(=O)N[C@@H](Cc1ccc(O)cc1)C(N)=O)[C@@H](C)O)C(C)C)[C@@H](C)O
notes: also called compound 52

Numbered stars: 1 amine (or outer) side, 2 acyl side, 3 side chain; on linkers, the order of the positions; unused ones are H or OH. Bridge positions count the residues as written; N and C are the ends. Side chains are listed from the residue outwards. Ends that are not written are not given here. * marks the point of attachment. C20 diacid = O=C(O)CCCCCCCCCCCCCCCCCCC(=O)*; γGlu = O=C(O)[C@H](CCC(=O)[*:2])N[*:1]; AEEA = NCCOCCOCC(=O)O

This is an account of results in US20140087995A1 (published 2014).

One assay addresses T1, human calcitonin receptor (human, UniProt P30988 25-474).
T1 construct: whole, on cells; Assayed as cell membranes of BHK tk'ts 13 cells stably transfected with the human calcitonin receptor (Assay VII); also called hCTR; hCT
T1 sequence (looked up): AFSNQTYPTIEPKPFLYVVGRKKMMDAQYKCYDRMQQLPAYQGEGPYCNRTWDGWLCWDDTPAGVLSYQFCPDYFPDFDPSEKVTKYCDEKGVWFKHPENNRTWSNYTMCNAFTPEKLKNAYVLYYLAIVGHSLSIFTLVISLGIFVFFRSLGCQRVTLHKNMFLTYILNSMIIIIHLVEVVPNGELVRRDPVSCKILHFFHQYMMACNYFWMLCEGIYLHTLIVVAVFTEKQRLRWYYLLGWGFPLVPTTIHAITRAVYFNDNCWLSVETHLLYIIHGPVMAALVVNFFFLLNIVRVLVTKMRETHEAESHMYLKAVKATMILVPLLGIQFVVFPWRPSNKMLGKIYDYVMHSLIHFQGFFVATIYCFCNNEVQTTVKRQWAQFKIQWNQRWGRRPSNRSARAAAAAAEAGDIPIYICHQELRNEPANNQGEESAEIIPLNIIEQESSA
Description: IC50 at hCTR divided by IC50 at hAmylin-R (SPA competition assays V and VII). The method, then: The resulting pellet was resuspended, homogenized and centrifuged (20.000 rpm, 15 min) in a buffer containing 20 mM Na-HEPES and 0.1 mM EDTA (pH 7.4, buffer 2). The resulting pellet was resuspended in buffer 2 and protein concentration was measured (BCA protein Assay, Pierce). The homogenate was kept cold during the whole procedure. The membranes were kept at −80° C. until use. The assay was performed in a 384 well Optiplate (PerkinElmer) in a total volume of 40 ul. Membranes were mixed with SPA beads. Final concentration of membranes 35 ng/μL final and SPA beads was 0.05 mg/well. Test-compounds were dissolved in DMSO and further diluted in assay buffer (50 mM Hepes, pH 7.4, 1 mM CaCl2, 5 mM MgCl₂, 0.1% OA and 0.02% Tween20). […] The final mixture was incubated with shaking at 400 rpm for 120 min at 25° C. prior to centrifugation (1500 rpm, 10 min). Samples were analyzed on TopCounter™ (Packard). The IC₅₀ was calculated using (one site binding competition analysis) GraphPad Prism5 as a measure of receptor affinity.
Membranes were prepared in the following way; the cells were rinsed with PBS and incubated with Versene for approximately 5 min before harvesting. The cells were flushed with PBS and the cell-suspension was centrifuged for 5 min at 1000 rpm. Cells were homogenized (Ultrathurrax) in a buffer containing 20 mM Na-HEPES and 10 mM EDTA (pH 7.4) and centrifuged at 20.000 rpm for 15 min. The resulting pellet was resuspended, homogenized and centrifuged (20.000 rpm, 15 min) in a buffer containing 20 mM Na-HEPES and 0.1 mM EDTA (pH 7.4, buffer 2). The resulting pellet was resuspended in buffer 2 and protein concentration was measured (BCA protein Assay, Pierce). The homogenate was kept cold during the whole procedure. The membranes were kept at −80° C. until use. Assay was performed in a 384 well Optiplate (PerkinElmer) in a total volume of 40 ul. Membranes were mixed with SPA beads.
Consider B1, for which the “Ratio hCT/hAmylin binding” value was 65.3.

As for B2, the “Ratio hCT/hAmylin binding” value came to 63.4. In the case of B3, the “Ratio hCT/hAmylin binding” value amounted to 101.

Another assay addresses T1, human calcitonin receptor. Nature of the assay: SPA competition vs 125I-calcitonin, membranes of BHK cells with human calcitonin receptor (Assay VII). On the procedure:
Membranes were prepared in the following way; the cells were rinsed with PBS and incubated with Versene for approximately 5 min before harvesting. The cells were flushed with PBS and the cell-suspension was centrifuged for 5 min at 1000 rpm. Cells were homogenized (Ultrathurrax) in a buffer containing 20 mM Na-HEPES and 10 mM EDTA (pH 7.4) and centrifuged at 20.000 rpm for 15 min. The resulting pellet was resuspended, homogenized and centrifuged (20.000 rpm, 15 min) in a buffer containing 20 mM Na-HEPES and 0.1 mM EDTA (pH 7.4, buffer 2). The resulting pellet was resuspended in buffer 2 and protein concentration was measured (BCA protein Assay, Pierce). The homogenate was kept cold during the whole procedure. The membranes were kept at −80° C. until use. Assay was performed in a 384 well Optiplate (PerkinElmer) in a total volume of 40 ul. Membranes were mixed with SPA beads. Final concentration of membranes 35 ng/μL final and Final concentration of SPA beads was 0.05 mg/well. Test-compounds were dissolved in DMSO and further diluted in assay buffer (50 mM Hepes, pH 7.4, 1 mM CaCl2, 5 mM MgCl₂, 0.1% OA and 0.02% Tween20). […] The final mixture was incubated for 120 min with shaking at 400 rpm at 25° C. prior to centrifugation (1500 rpm, 10 min). Samples were analyzed on TopCounter™ (Packard). The […] was calculated using (one site binding competition analysis) GraphPad Prism5 as a measure of receptor affinity.
Take B1: the IC50 was 8.68 nM. On the same count and under the same terms, the value for B4 was 56.9 nM. Still for that read-out and setting: next, B2: 61.3 nM; B3: 12 nM.

A word on the IC50: it is the concentration that inhibits the measured activity by half.
